# The supplement of paper PMC10065799, “High-throughput profiling of sequence recognition by tyrosine kinases and SH2 domains using bacterial peptide display” (eLife, 2023)
# Columns and labels:
# c-Src SH2 = assay: SH2 binding enrichment of the phosphorylated peptide, bacterial display (enrichment ratio); higher = better substrate or ligand; peptides without Tyr show the background
# Grb2 SH2 = Grb2 SH2 (UniProt P62993); assay: as above
# SHP2-C SH2 = assay: as above
# c-Abl (mouse) = assay: phosphorylation enrichment, bacterial display (enrichment ratio); higher = better substrate or ligand; peptides without Tyr show the background
# Fes = Fes (UniProt P07332); assay: as above
# c-Src = assay: as above
# Fer (mouse) = assay: as above
# AncSZ = assay: as above
# Fyn = Fyn (UniProt P06241); assay: as above
# EPHB1 = EPHB1 (UniProt P54762); assay: as above
# EPHB2 = EPHB2 (UniProt P29323); assay: as above
# FGFR3 = FGFR3 (UniProt P22607); assay: as above
# Jak2 = Jak2 (UniProt O60674); assay: as above
# FGFR1 = FGFR1 (UniProt P11362); assay: as above
# MERTK = MERTK (UniProt Q12866); assay: as above
# Hck = Hck (UniProt P08631); assay: as above
# 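For SH2 binding enrichment of the phosphorylated peptide, bacterial display in this document: peptide library displayed on the E. coli surface as eCPX fusions, selected cells deep-sequenced, score is each peptide's frequency after selection divided by its frequency in the input.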
# 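For phosphorylation enrichment, bacterial display in this document: 11-residue human phosphosite peptides and single-mutation variants displayed on the E. coli surface, counted by deep sequencing, each peptide's frequency after selection divided by its frequency in the unselected input library; frequency after pTyr selection over input frequency; kinase dosed for 20-30% of maximal phosphorylation in three min.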
# Sequence of FGFR1 (P11362 whole entry, looked up): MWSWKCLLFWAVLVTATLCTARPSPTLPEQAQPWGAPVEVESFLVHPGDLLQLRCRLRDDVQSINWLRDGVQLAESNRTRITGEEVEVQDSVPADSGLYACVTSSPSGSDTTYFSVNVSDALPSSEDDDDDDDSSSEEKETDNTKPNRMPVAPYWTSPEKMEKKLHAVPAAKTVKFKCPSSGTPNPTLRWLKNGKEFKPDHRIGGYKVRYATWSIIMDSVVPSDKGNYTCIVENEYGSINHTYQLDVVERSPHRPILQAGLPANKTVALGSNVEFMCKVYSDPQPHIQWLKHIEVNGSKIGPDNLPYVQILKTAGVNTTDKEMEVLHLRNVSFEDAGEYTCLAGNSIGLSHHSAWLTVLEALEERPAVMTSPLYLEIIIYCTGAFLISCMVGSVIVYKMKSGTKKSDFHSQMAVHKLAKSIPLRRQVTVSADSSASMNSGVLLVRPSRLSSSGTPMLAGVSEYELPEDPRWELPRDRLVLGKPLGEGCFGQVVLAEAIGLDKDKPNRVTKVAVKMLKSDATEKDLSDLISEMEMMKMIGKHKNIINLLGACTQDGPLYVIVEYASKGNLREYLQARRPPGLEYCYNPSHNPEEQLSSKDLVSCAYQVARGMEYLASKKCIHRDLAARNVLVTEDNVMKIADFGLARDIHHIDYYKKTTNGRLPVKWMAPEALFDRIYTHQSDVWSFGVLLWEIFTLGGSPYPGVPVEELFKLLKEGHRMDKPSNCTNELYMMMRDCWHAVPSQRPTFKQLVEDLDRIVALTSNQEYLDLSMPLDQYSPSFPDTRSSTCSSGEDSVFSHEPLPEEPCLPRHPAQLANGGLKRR
# Sequence of Grb2 SH2 (P62993 whole entry, looked up): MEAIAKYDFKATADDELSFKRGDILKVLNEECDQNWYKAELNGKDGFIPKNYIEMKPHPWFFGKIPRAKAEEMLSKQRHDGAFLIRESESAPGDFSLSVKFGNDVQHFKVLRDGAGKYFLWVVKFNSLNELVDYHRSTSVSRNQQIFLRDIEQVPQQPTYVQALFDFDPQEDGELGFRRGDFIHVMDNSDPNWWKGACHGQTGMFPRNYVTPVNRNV
# Sequence of Fes (P07332 whole entry, looked up): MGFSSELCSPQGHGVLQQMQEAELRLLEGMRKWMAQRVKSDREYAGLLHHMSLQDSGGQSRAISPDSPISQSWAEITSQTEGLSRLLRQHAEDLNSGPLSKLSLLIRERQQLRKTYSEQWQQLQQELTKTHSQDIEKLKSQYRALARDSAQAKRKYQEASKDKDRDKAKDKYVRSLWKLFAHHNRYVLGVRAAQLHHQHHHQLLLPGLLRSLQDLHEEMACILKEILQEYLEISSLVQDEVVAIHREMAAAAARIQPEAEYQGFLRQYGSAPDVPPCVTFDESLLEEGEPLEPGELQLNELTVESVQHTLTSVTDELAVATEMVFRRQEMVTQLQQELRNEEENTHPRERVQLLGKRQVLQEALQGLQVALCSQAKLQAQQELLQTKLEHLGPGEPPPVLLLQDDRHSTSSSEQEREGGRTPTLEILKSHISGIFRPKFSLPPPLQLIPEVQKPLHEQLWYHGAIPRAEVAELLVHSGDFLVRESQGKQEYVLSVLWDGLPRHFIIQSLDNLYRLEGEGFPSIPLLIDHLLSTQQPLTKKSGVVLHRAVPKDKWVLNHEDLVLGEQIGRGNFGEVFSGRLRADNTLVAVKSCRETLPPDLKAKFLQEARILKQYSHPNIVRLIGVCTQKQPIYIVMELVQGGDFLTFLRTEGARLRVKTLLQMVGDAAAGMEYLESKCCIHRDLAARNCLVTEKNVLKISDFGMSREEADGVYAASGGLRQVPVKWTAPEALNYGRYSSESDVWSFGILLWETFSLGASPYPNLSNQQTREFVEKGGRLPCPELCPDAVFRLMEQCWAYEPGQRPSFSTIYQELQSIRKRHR
# Sequence of Hck (P08631 whole entry, looked up, the tested form may be a part): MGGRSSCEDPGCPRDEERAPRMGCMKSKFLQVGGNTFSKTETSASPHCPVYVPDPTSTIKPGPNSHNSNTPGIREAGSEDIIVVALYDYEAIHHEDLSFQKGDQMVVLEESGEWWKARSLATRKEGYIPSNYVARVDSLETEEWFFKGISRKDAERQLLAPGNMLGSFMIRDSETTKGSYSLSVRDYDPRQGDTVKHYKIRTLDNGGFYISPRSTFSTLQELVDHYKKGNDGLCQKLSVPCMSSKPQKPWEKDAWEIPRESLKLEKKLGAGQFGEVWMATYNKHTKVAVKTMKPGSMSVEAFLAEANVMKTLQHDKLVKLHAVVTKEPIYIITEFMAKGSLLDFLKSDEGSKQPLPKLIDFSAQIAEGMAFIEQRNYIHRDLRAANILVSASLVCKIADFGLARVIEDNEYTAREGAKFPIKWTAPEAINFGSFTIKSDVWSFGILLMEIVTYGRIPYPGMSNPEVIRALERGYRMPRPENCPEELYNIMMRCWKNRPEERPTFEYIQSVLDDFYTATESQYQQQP
# Sequence of MERTK (Q12866 whole entry, looked up): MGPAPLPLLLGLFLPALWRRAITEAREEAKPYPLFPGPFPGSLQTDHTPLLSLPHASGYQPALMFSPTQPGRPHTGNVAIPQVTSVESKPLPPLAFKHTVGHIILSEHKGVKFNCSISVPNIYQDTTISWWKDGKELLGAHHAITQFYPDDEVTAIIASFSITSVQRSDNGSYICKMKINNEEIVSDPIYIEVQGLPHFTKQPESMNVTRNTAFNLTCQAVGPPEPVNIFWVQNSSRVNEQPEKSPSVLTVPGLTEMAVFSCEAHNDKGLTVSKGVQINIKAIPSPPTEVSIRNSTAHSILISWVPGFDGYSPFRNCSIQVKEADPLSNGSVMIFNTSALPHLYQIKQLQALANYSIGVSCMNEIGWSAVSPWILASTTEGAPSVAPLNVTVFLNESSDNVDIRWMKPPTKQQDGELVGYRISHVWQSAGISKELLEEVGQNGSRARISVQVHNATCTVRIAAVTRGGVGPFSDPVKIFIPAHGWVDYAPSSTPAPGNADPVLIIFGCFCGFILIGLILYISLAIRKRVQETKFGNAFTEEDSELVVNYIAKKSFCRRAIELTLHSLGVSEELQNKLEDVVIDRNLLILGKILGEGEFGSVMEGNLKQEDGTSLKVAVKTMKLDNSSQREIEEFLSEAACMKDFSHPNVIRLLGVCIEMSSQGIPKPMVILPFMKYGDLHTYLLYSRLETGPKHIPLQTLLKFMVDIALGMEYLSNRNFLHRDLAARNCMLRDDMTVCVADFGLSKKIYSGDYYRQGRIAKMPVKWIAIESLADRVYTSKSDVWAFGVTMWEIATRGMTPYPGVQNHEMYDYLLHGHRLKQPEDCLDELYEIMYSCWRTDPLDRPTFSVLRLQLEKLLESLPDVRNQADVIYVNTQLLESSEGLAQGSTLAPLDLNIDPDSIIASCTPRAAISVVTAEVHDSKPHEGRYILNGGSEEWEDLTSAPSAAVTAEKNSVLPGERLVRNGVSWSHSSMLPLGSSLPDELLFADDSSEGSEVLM
# Sequence of EPHB2 (P29323 whole entry, looked up): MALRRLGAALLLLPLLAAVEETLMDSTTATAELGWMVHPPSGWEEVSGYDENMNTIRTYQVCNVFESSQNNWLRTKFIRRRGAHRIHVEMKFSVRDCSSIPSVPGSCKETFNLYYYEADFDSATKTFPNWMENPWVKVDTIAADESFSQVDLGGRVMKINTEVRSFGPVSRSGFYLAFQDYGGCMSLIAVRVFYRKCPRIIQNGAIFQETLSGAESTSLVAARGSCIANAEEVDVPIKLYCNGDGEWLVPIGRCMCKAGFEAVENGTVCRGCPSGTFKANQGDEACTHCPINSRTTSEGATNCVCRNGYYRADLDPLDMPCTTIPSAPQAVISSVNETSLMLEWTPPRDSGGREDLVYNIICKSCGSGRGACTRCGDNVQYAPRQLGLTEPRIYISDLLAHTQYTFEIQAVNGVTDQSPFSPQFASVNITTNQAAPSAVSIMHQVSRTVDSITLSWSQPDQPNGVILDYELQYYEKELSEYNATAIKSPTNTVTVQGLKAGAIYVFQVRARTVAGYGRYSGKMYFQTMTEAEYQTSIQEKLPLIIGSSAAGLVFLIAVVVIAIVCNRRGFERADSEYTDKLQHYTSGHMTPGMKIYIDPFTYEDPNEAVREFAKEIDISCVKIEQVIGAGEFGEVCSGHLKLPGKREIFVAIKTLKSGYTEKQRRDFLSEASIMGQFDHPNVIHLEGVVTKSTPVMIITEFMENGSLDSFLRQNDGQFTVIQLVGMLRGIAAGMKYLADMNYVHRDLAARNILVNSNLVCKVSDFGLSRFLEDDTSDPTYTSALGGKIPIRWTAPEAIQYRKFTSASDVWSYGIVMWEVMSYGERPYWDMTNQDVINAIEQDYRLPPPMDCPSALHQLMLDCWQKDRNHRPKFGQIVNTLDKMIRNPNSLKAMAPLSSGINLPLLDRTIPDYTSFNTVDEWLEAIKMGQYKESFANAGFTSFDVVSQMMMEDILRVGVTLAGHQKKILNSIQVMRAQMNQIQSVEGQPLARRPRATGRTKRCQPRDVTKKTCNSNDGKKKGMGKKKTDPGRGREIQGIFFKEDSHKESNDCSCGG
# Sequence of Fyn (P06241 whole entry, looked up): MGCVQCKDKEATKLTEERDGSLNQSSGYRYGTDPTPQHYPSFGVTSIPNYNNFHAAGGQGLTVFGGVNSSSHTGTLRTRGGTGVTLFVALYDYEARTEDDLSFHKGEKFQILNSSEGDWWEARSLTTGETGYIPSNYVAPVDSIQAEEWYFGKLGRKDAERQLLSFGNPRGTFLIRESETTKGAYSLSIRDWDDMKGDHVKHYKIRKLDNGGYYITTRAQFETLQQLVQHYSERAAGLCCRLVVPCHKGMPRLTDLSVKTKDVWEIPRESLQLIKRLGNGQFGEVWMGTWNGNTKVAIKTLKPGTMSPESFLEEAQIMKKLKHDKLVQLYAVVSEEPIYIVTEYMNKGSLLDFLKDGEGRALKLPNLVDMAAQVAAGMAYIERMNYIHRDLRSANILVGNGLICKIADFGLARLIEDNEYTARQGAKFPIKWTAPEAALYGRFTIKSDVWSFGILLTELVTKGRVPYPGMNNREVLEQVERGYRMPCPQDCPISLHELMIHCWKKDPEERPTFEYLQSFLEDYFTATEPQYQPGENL
Sequence,SH2 binding enrichment (c-Src SH2),SH2 binding enrichment (Grb2 SH2),SH2 binding enrichment (SHP2-C SH2),phosphorylation enrichment (c-Abl (mouse)),phosphorylation enrichment (Fes),phosphorylation enrichment (c-Src),phosphorylation enrichment (Fer (mouse)),phosphorylation enrichment (AncSZ),phosphorylation enrichment (Fyn),phosphorylation enrichment (EPHB1),phosphorylation enrichment (EPHB2),phosphorylation enrichment (FGFR3),phosphorylation enrichment (Jak2),phosphorylation enrichment (FGFR1),phosphorylation enrichment (MERTK),phosphorylation enrichment (Hck)
GQKTLYSFFSP [UNG_Y8],0.589,1.04,1.6,2.05,1.2,4.32,8.62,0.984,4.16,2.58,2.12,1.42,0.908,1.18,10.3,4.06
GREEFYSTHPH [LRRK2_Y1402],0.376,0.845,0.607,0.418,0.575,0.421,0.528,0.576,0.42,0.385,0.482,0.465,0.483,0.505,1.52,0.679
GRQGIYKENER [GPR143_Y231_T232K],0.443,0.735,0.427,0.555,0.722,0.436,0.407,0.627,0.371,0.322,0.375,0.428,0.515,0.441,0.738,0.484
GRRGQYVMLSE [TTC7A_Y396],2.01,0.84,0.673,0.565,0.586,0.549,0.45,0.692,0.546,0.431,0.494,0.532,0.573,0.506,0.673,0.512
GRSTFYWPRPR [GAGE12J_Y10_YF],0.563,0.844,0.64,0.573,0.602,0.501,0.463,0.831,0.474,0.446,0.472,0.47,0.644,0.48,0.538,0.713
GSETPYVDRTP [ESS2_Y335],0.573,0.814,0.719,0.603,0.821,0.453,0.409,0.711,0.451,0.408,0.477,0.553,0.813,0.488,0.466,0.429
GSIQQYIYKQE [PRG4_Y1271],0.294,0.919,0.837,0.486,0.644,0.752,0.398,0.651,0.522,0.425,0.567,0.539,0.811,0.507,0.433,0.439
GSTLSYGRDGR [MATR3_Y158_P154S],0.465,0.793,0.642,0.392,0.516,0.382,0.374,0.545,0.353,0.339,0.343,0.466,0.452,0.389,0.374,0.376
GTATAYLCGVK [ALPL_Y117],0.432,0.763,0.695,0.667,1.07,0.427,0.463,0.756,0.472,0.512,0.507,0.595,0.89,0.485,0.352,0.501
GTSLIYWILFT [G6PC3_Y214_T216I],0.593,0.742,0.695,1.43,1.56,2.67,0.55,1.18,2.42,1,0.749,1.38,1.59,1.17,1.46,1.74
GVRLFYRVMES [RB1_Y454_YF],0.429,0.624,0.684,0.83,1.42,0.39,0.517,1.29,0.448,0.655,0.576,0.815,1.38,0.488,0.381,0.541
GVRTIYTIDGS [DCLK2_Y124],0.521,0.968,0.941,0.5,0.846,1.6,0.52,0.803,1.38,0.563,0.507,0.506,0.69,0.581,0.553,0.697
GVYSRYFTTYD [CLCA1_Y661],1.06,0.944,1.27,0.955,1,4.77,0.573,1.35,4.58,1.12,1.25,0.729,1.07,0.571,3.71,3.33
HAVEDYQAIVD [CCT7_Y263_T259A],0.696,1.09,0.768,1.19,1.47,0.942,0.653,1.54,0.792,0.73,1.03,1.05,1.25,0.864,3.12,0.714
HDEPTYARSSK [PEAK1_Y616],0.576,0.92,0.819,0.864,1.03,1.29,0.57,0.785,0.519,0.478,0.321,0.575,1.01,0.389,0.679,0.918
HEEKVYLSRGD [CRACR2A_Y141],0.366,0.812,0.495,0.826,1.05,1.08,0.569,0.884,0.995,0.541,0.526,1.17,0.784,0.672,0.611,0.885
